Measured values taken from the supplement of paper PMC10899765.

What was measured:
Conditions in all cases: 20 nM; 72 h
[1] = system: MCF10A; experiment: percent viability (nuclei count relative to siNT); higher = more viable cells
Method: (§1)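 After 72 h, cells were fixed and stained with Hoechst and anti-fibrillarin, and nucleoli per nucleus were counted with CellProfiler. Values are plate-adjusted percent effect for the one-nucleolus and 5+ nucleoli phenotypes, normalised to siNT (0%) and to the positive controls siNOL11 or siKIF11 (100%), as the mean of biological triplicates. Percent viability is the nuclei count relative to siNT.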

[2] = system: MCF10A; experiment: 5+ nucleoli phenotype percent effect (relative to siNT 0% and siKIF11 100%); higher = more cells with five or more nucleoli
Method: as §1

[3] = system: MCF10A; experiment: one-nucleolus phenotype percent effect (relative to siNT 0% and siNOL11 100%); higher = more cells with one nucleolus (ribosome biogenesis inhibition)
Method: as §1

Sequence | percent viability [1] | 5+ nucleoli phenotype percent effect [2] | one-nucleolus phenotype percent effect [3]
ACUGCCCUAAGUGCUCCUUCUGG [hsa-miR-18a-3p] | 58.7% | 4.11% | -2.39%
UACCACAGGGUAGAACCACGG [hsa-miR-140-3p] | 118% | 47.1% | -23.5%
GGAUGGAGGAGGGGUCU [hsa-miR-4534] | 46.8% | 31% | -5.6%
AACCCCUAAGGCAACUGGAUGG [hsa-miR-5195-5p] | 53.1% | 2.35% | -2.47%
ACCAAGUCUGCGUCAUCCUCUC [hsa-miR-3691-3p] | 63.2% | 0.0313% | -5.26%
CAAGCUCGCUUCUAUGGGUCUG [hsa-miR-99a-3p] | 70% | -16.1% | 23.3%
GACAGAGUGCCACUUACUGAA [hsa-miR-4797-5p] | 23.7% | -25.1% | 41.8%
UUCAUUUGCCUCCCAGCCUACA [hsa-miR-664b-3p] | 28.7% | -29.2% | 39.1%
CAAGGGACCAAGCAUUCAUUAU [hsa-miR-4475] | 37.7% | -16.1% | 7.86%
UUGGCUGGUCUCUGCUCCGCAG [hsa-miR-6842-3p] | 24.9% | -0.515% | 19.7%
AACCCGUAGAUCCGAUCUUGUG [hsa-miR-99a-5p] | 48.2% | 1.63% | 7.7%
CAAAGACUGCAAUUACUUUUGCG [hsa-miR-548u] | 75.7% | 43.4% | -31.1%
CCAGUUUUCCCAGGAUU [hsa-miR-4328] | 108% | 62.6% | -38.7%
AACUCUAGCCUGAGCAACAG [hsa-miR-5684] | 40.5% | -2.91% | 2.62%
UUUGGACAGAAAACACGCAGGU [hsa-miR-4520b-3p] | 87% | 50% | -21.6%
UUGGGAUGGUAGGACCAGAGGGG [hsa-miR-6728-5p] | 50.3% | 24.3% | -15.8%
CCUGGGCAGCGUGUGGCUGAAGG [hsa-miR-3187-5p] | 66.4% | 41.1% | -3.44%
UCUACAAAGGAAAGCGCUUUCU [hsa-miR-1283] | 148% | 29.7% | -26.4%
CUUAGCAGGUUGUAUUAUCAUU [hsa-miR-374b-3p] | 67.5% | -9.55% | -6.79%
GGGGAGCUGUGGAAGCAGUA [hsa-miR-920] | 53.2% | 23.5% | -6.81%

Sequence | percent viability [1] | 5+ nucleoli phenotype percent effect [2] | one-nucleolus phenotype percent effect [3]
CUGGGAGAGGGUUGUUUACUCC [hsa-miR-30c-1-3p] | 13.1% | -21.9% | 23.4%
GAGCCAGUGGUGAGACAGUGA [hsa-miR-4676-5p] | 53.3% | -5.34% | -15.1%
AUGGUCACCUCCGGGACU [hsa-miR-5587-5p] | 60.6% | 41.6% | -15.8%
AUGAUCCAGGAACCUGCCUCU [hsa-miR-640] | 32.2% | -28.9% | 28.8%
UCUGUCAUUUCUUUAGGCCAAUA [hsa-miR-215-3p] | 39.5% | -6.58% | 2.4%
UGCUUCCUUUCAGAGGGU [hsa-miR-516a-3p] | 100% | -23% | -10.2%
GCUGAUGAUGAUGGUGCUGAAG [hsa-miR-4502] | 85.3% | 38.7% | -19.2%
UGGGAGCUGGACUACUUC [hsa-miR-4300] | 19.7% | 16.1% | 21.3%
GUGCCACCUUAACUGCAGCCAAU [hsa-miR-4715-3p] | 53.4% | -23.5% | 6.34%
AGUGGCACAUGUUUGUUGUGAG [hsa-miR-891a-3p] | 32.1% | -11.2% | 35%
ACCCCCGGGCAAAGACCUGCAGAU [hsa-miR-6840-5p] | 92% | -18.8% | 5.12%
UAGGUUAUCCGUGUUGCCUUCG [hsa-miR-154-5p] | 32.9% | -28.7% | 34.9%
UUAGAACGUUUUAGGGUCAAAU [hsa-miR-5687] | 50.5% | 16.2% | -12.4%
CAAAACUGGCAAUUACUUUUGC [hsa-miR-548a-3p] | 77.4% | 45.7% | -17.2%
UUUGAGGCUACAGUGAGAUGUG [hsa-miR-1304-5p] | 68.3% | 15.4% | 0.012%
AAAGAUGGACAAUUGGCUAAAU [hsa-miR-4662b] | 38.3% | -25.7% | 49.4%
ACUGGCAGAACACUGAAGCAGC [hsa-miR-6868-5p] | 26.9% | -21.7% | 34.1%
CCCGGCCGGAACGCCGCACU [hsa-miR-6850-3p] | 65.7% | 23.1% | -20.3%
AUUUCCCUGCCAUUCCCUUGGC [hsa-miR-4446-5p] | 18.4% | -36% | 28.2%
UCCCUUGUCUCCUUUCCCUAG [hsa-miR-6780b-3p] | 68.9% | 32.5% | -21.9%

Sequence | percent viability [1] | 5+ nucleoli phenotype percent effect [2] | one-nucleolus phenotype percent effect [3]
UGGAAAAAACUGGUGUGUGCUU [hsa-miR-3148] | 35.9% | -1.39% | -7.81%
UUAGGCCGCAGAUCUGGGUGA [hsa-miR-1295a] | 33.2% | -12.5% | 8.73%
UUCAGCCAGGCUAGUGCAGUCU [hsa-miR-3157-5p] | 20.1% | -4.24% | 7.66%
AUCCAGUUCUCUGAGGGGGCU [hsa-miR-5195-3p] | 46.4% | 2.52% | 13.3%
UGGUCGACCAGUUGGAAAGUAAU [hsa-miR-412-5p] | 46.8% | -1.85% | 13.6%
AGCUGGUAAAAUGGAACCAAAU [hsa-miR-133a-5p] | 30.7% | -4.69% | 7.21%
CAUUCAACUAGUGAUUGU [hsa-miR-4272] | 170% | 33.7% | -23.4%
UGAGGUAGGAGGUUGUAUAGUU [hsa-let-7e-5p] | 23% | 48.7% | -8.3%
UAAUGCAUUAAAUUAUUGAAGG [hsa-miR-5700] | 125% | 47.4% | -23.8%
GUGCAUGGCUGUAUAUAUAACA [hsa-miR-5011-3p] | 56.9% | 19.5% | 0.75%
CAUCCGUCCGUCUGUCCAC [hsa-miR-4800-3p] | 67.4% | -3.64% | -2.39%
UGGGAGAGCAGGGUAUUGUGGA [hsa-miR-6731-5p] | 6.77% | -22.2% | 43%
CCUGUCUGUGCCUGCUGUACA [hsa-miR-3120-5p] | 127% | 4.71% | -1.5%
GUCACUGAUGUCUGUAGCUGAG [hsa-miR-4420] | 87.4% | 1.76% | -18.2%
UGCAAAAGUAAUUGCAGUUUUUG [hsa-miR-548g-5p] | 73.1% | 3.25% | -17%
UUAGCUUAAGGAGUACCAGAUC [hsa-miR-5579-3p] | 65.6% | 7.97% | -7.52%
ACUGGGAAGAGGAGCUGAGGGA [hsa-miR-4646-5p] | 35% | -6.37% | 21.9%
GGGAGAAGGGUCGGGGC [hsa-miR-4516] | 94.1% | 31.9% | -25.4%
AACAUUCAACGCUGUCGGUGAGU [hsa-miR-181a-5p] | 76.4% | 0.638% | 2.31%
